In this assay the target is Flag::Hth (Homothorax, Flag-tagged) (Drosophila) (UniProt O46339). The assay can be described thus: co-IP; SF9 extracts with Flag::Hth, His::Exd and HA::Abd-B (wild type or W>A) mixed and incubated on anti-Flag resin; lysis solution 140 mM KCl, 5% glycerol, 2.5% MgCl2, 25 mM Hepes pH 7.8, 10 mM imidazole; Western blot by the tags. Background: In western blotting, separated proteins are transferred to a membrane and probed.
Chain of UniProt O46339 (O46339 whole entry): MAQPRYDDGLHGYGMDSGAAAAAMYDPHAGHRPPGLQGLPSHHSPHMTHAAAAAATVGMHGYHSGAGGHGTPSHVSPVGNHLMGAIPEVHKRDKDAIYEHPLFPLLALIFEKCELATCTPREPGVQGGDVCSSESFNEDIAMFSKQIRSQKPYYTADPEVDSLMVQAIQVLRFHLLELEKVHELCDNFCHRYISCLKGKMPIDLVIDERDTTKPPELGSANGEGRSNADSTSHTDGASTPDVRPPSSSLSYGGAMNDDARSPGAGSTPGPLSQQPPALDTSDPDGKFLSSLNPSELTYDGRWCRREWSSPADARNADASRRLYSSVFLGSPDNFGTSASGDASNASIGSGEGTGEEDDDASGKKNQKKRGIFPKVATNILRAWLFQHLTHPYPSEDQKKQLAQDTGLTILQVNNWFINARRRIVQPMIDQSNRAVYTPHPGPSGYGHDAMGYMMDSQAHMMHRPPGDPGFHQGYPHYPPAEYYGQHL

The substance “HA::Abd-B^W (Abdominal-B with the Tryptophan of the HX-like motif mutated to Alanine, HA-tagged) (from UniProt P09087 1-493)” came in with a percent reduction of co-precipitated protein against wild-type Abd-B of 24%.

The values are drawn from article PMC11759358.
